In patent publication US20060134087A1, “ITI-D1 Kunitz domain mutants as hNE inhibitors” (Dyax Corp., published 2006):

Columns and labels:
[1] = molecular target: T1, Human Neutrophil Elastase (human, UniProt P08246); experiment: enzyme inhibition assay
Protocol: (§1) Inhibition constants for the proteins reacting with hNE (Kᵢ) were determined using RT measurements of hydrolysis of a fluorogenic substrate (N-methoxysuccinyl-Ala-Ala-Pro-Val-7-amino-4-methylcoumarin, Sigma M-9771) by hNE. […] The reactions were incubated at RT for 30 minutes. At the end of the incubation period, the fluorogenic substrate was added at a concentration of 25 μM and the time course for increase in fluorescence at 470 nm (excitation at 380 nm) due to enzymatic substrate cleavage was recorded using a spectrofluorimeter (Perkin-Elmer 650-15) and strip chart recorder. […] Kᵢ is related to Kₐₚₚₐᵣₑₙₜ by Kᵢ=Kₐₚₚₐᵣₑₙₜ×(1/(1+(S₀/Kₘ))). The correction is small compared to the possible errors in Kₐₚₚₐᵣₑₙₜ. Rates of enzymatic substrate cleavage were determined from the linear slopes of the recorded increases in fluorescence.
(§2) We recorded data used to determine Kᵢ for EPI-HNE-2 and EPI-HNE-3 reacting with hNE. Data obtained as described above are recorded as percent residual activity plotted as a function of added inhibitor. […] From the data, Kᵢ values for EPI-HNE-2 and for EPI-HNE-3 reacting with hNE at RT were calculated to be 4.8 pM and 6.2 pM, respectively.

[2] = molecular target: T1, Human Neutrophil Elastase; experiment: calculated by the filing from koff = KD × kon
Source text: […] […] B. Specificity.

[3] = molecular target: Human Pancreatic Chymotrypsin (human, UniProt P17538); experiment: enzyme inhibition assay; said to be probably not specific
[4] = molecular target: T1, Human Neutrophil Elastase; experiment: progressive inhibition of hNE substrate hydrolysis after addition of inhibitor
Protocol: The kinetic on-rates for the inhibitors reacting with hNE (kₒₙ) were determined from measurements of progressive inhibition of substrate hydrolytic activity by hNE following addition of inhibitor. For these experiments, a known concentration of inhibitor was added to a solution of hNE (0.847 nM) and substrate (25 μM) in 2 ml of reaction buffer in a plastic fluorescence cuvette. The change in fluorescence was recorded continuously following addition of the inhibitor. […] The enzymatic rate at selected times following addition of the inhibitor was determined from the slope of the tangent to the fluorescence time course at that time.
The kinetic constant kₒₙ for EPI-HNE-2 reacting with hNE was determined as follows. EPI-HNE-2 at 1.3 nM was added to buffer containing 0.867 nM hNE (I:E=1.5:1) at time 0.

[5] = molecular target: T1, Human Neutrophil Elastase; experiment: hNE inhibition assay of EPI-HNE-3 stored in unbuffered water at 4° C. for five months
[6] = molecular target: T1, Human Neutrophil Elastase; experiment: inhibition of hNE hydrolysis of a fluorogenic substrate, [hNE] = 8.47 × 10^-10 molar
Protocol: as §1, §2

[7] = molecular target: Human Serum Plasmin (human, UniProt P00747); experiment: enzyme inhibition assay; limit on the assumption of less than 10% inhibition at the highest concentration tested
[8] = molecular target: Human Serum Kallikrein (human, UniProt P03952); experiment: as above
[9] = molecular target: Human Serum Thrombin (human, UniProt P00734); experiment: as above
[10] = molecular target: Human Urine Urokinase (human, UniProt P00749); experiment: as above
[11] = molecular target: Human Plasma Factor Xa (human, UniProt P00742); experiment: as above
[12] = molecular target: T1, Human Neutrophil Elastase; experiment: display phage on hNE beads, pH elution
Protocol: (§3) To test if ITI-D1E7-display phage bind hNE beads, pH elution profiles were measured. Aliquots of EpiNE-7, MA-ITI-D1, and MA-ITI-D1E7 display phage were incubated with hNE beads for three hours at room temperature (RT). The beads were washed and phage were eluted as described in U.S. Pat. No. 5,223,409, except that only three pH elutions were performed.

[13] = molecular target: T1, Human Neutrophil Elastase; experiment: abbreviated fractionation of display phage on hNE beads
Protocol: as §3

[14] = molecular target: T1, Human Neutrophil Elastase; experiment: display phage eluted from hNE beads, normalized to MA-EpiNE7 in a concurrent elution

B1: EPI-HNE-3 (designed binder)
chain: AACNLPIVRGPCIAFFPRWAFDAVKGKCVLFPYGGCQGNGNKFYSEKECREYCGVP
Ki [1]: 6 pM
koff [2]: 5e-05 s⁻¹
Ki [3]: ~30 µM
kon [4]: 8e+06 M⁻¹ s⁻¹
Ki [5]: ~0.012 nM
Kd [6]: 6.2 pM
Ki [7]: > 100 µM
Ki [8]: > 100 µM
Ki [9]: > 100 µM
Ki [10]: > 100 µM
Ki [11]: > 100 µM

B2: MA-ITI-D1E7 display phage (designed binder)
chain: KEDSCQLGYSAGPCVAMFPRYFYNGTSMACETFQYGGCMGNGNNFVTEKDCLQTCRGA
fold less total fraction eluted than EpiNE-7 display phage [12]: ~40 fold
fraction of input eluted at pH 3.5 [13]: 8e-05 fraction of input
fraction of input in Wash [13]: 2e-05 fraction of input
Normalized fraction of input (relative to recovered MA-EpiNE7) [14]: 0.027 ratio
